These results are taken from article PMC8440931, “Physical and Functional Interaction of Mitochondrial Single-Stranded DNA-Binding Protein and the Catalytic Subunit of DNA Polymerase Gamma” (Frontiers in Genetics, 2021).

B2: catalytic subunit of mitochondrial DNA polymerase gamma (Pol γα) (enzyme, human, UniProt P54098 1-1239, looked up)
chain: MSRLLWRKVAGATVGPGPVPAPGRWVSSSVPASDPSDGQRRRQQQQQQQQQQQQQPQQPQVLSSEGGQLRHNPLDIQMLSRGLHEQIFGQGGEMPGEAAVRRSVEHLQKHGLWGQPAVPLPDVELRLPPLYGDNLDQHFRLLAQKQSLPYLEAANLLLQAQLPPKPPAWAWAEGWTRYGPEGEAVPVAIPEERALVFDVEVCLAEGTCPTLAVAISPSAWYSWCSQRLVEERYSWTSQLSPADLIPLEVPTGASSPTQRDWQEQLVVGHNVSFDRAHIREQYLIQGSRMRFLDTMSMHMAISGLSSFQRSLWIAAKQGKHKVQPPTKQGQKSQRKARRGPAISSWDWLDISSVNSLAEVHRLYVGGPPLEKEPRELFVKGTMKDIRENFQDLMQYCAQDVWATHEVFQQQLPLFLERCPHPVTLAGMLEMGVSYLPVNQNWERYLAEAQGTYEELQREMKKSLMDLANDACQLLSGERYKEDPWLWDLEWDLQEFKQKKAKKVKKEPATASKLPIEGAGAPGDPMDQEDLGPCSEEEEFQQDVMARACLQKLKGTTELLPKRPQHLPGHPGWYRKLCPRLDDPAWTPGPSLLSLQMRVTPKLMALTWDGFPLHYSERHGWGYLVPGRRDNLAKLPTGTTLESAGVVCPYRAIESLYRKHCLEQGKQQLMPQEAGLAEEFLLTDNSAIWQTVEELDYLEVEAEAKMENLRAAVPGQPLALTARGGPKDTQPSYHHGNGPYNDVDIPGCWFFKLPHKDGNSCNVGSPFAKDFLPKMEDGTLQAGPGGASGPRALEINKMISFWRNAHKRISSQMVVWLPRSALPRAVIRHPDYDEEGLYGAILPQVVTAGTITRRAVEPTWLTASNARPDRVGSELKAMVQAPPGYTLVGADVDSQELWIAAVLGDAHFAGMHGCTAFGWMTLQGRKSRGTDLHSKTATTVGISREHAKIFNYGRIYGAGQPFAERLLMQFNHRLTQQEAAEKAQQMYAATKGLRWYRLSDEGEWLVRELNLPVDRTEGGWISLQDLRKVQRETARKSQWKKWEVVAERAWKGGTESEMFNKLESIATSDIPRTPVLGCCISRALEPSAVQEEFMTSRVNWVVQSSAVDYLHLMLVAMKWLFEEFAIDGRFCISIHDEVRYLVREEDRYRAALALQITNLLTRCMFAYKLGLNDLPQSVAFFSAVDIDRCLRKEVTMDCKTPSNPTGMERRYGIPQGEALDIYQIIELTKGSLEKRSQPGP
B3: biotinylated mtSSB variant lacking nine residues of loop 2.3 (Δ67-75), BTN-mtSSB_(l2.3) (natural protein, human, UniProt Q04837 17-148, looked up)
chain: ESETTTSLVLERSLNRVHLLGRVGQDPVLRQVEGKNPVTIFSLATNEMWRGDVSQKTTWHRISVFRPGLRDVAYQYVKKGSRIYLEGKIDYGEYMDKNNVRRQATTIIADNIIFLSDQTKEKE
modifications: biotin (conjugated; site not stated)
notes: also called loop 2.3-deficient mtSSB; source: purified recombinant protein; details in the Supplementary Materials

The target in series [1] is Pol γβ (Homo sapiens) (UniProt Q9UHN1). The following applies: cited from earlier work.
The target in series [2] is T1, mtSSB (wild type) (UniProt Q04837 17-148).
T1 sequence: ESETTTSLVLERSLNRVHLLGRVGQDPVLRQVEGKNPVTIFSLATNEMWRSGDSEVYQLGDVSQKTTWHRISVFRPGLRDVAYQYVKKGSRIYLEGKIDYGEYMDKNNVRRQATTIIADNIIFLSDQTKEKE
Description: BLI; 4 mM Mg2+; equilibrium responses of mass transfer fit, non-1:1 binding; BLI: 50 mM Tris-HCl pH 8.0, 10 mM KCl, 4 mM MgCl2, 0.4 mg/ml BSA, 10 mM DTT, 30 C. The following applies: protein: recombinant; chain copies: 4; label: 5'-biotin (immobilized on streptavidin sensor); single strand. On the technique in general: Biolayer interferometry detects binding as a change in optical thickness at a sensor tip.

Series [3] deals with B2. Description: BLI; BTN-mtSSB or BTN-mtSSB_(l2.3) (600 nM) saturated on streptavidin sensors; Pol γα as analyte at increasing concentrations; Ac buffer: 50 mM Tris-HCl pH 8.0, 10 mM KCl, 4 mM MgCl2, 0.4 mg/ml BSA, 10 mM DTT; 30°C, 1,000 rpm; 1:1 interaction model. The following applies: both partners purified.
Series [4] deals with B3. Description: cell-based or functional assay.

Broadly, the Kd is the equilibrium constant for the complex coming apart.

Pol γβ (Homo sapiens), sequence (Q9UHN1 2-485): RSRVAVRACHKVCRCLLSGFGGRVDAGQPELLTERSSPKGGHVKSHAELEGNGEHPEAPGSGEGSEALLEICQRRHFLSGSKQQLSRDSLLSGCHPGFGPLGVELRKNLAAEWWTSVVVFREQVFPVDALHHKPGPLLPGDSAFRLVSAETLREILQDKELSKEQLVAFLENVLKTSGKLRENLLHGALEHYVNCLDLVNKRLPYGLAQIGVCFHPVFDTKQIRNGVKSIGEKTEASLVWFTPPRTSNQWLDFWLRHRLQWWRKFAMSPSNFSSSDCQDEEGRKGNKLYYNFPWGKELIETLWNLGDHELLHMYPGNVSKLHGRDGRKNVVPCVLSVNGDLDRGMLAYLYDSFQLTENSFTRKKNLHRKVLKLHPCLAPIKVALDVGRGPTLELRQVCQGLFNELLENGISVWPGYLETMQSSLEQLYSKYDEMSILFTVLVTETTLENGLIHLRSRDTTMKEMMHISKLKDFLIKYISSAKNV

Consider Pol γα (from UniProt P54098), for which, in series [1], the Kd is 20 nM.
As for ATTATGAATTAATTTAATAATTTTTTTTTTTTTTTTTTTT (ssDNA, 5'-biotin) [BTN-ssDNA 40-mer], in series [2], the Kd was 2.3 nM.

B1: biotinylated mitochondrial single-stranded DNA-binding protein (BTN-mtSSB), wild type (natural protein, human, UniProt Q04837 17-148, looked up)
chain: ESETTTSLVLERSLNRVHLLGRVGQDPVLRQVEGKNPVTIFSLATNEMWRSGDSEVYQLGDVSQKTTWHRISVFRPGLRDVAYQYVKKGSRIYLEGKIDYGEYMDKNNVRRQATTIIADNIIFLSDQTKEKE
modifications: biotin (conjugated; site not stated)
notes: also called mtSSB4; wild-type mtSSB; source: purified recombinant protein; details in the Supplementary Materials
B1: binding in series [3] was characterised by a dissociation constant (Kd) of 48 nM.
Take B2: the “inhibition of primer extension by Pol γα on primer-template (15/59) DNA (mtSSB displacement assay), mtSSB_(l2.3) at 1:1 (~10%) and three-fold molar ratio to DNA template” value in series [4] is ~25%.
In turn, B3 displayed a Kd in series [3] of 26 nM.
